{
  "source": "IntAct's records for PubMed 21957239",
  "parents": {"B1": {"name": "Sodium-dependent dopamine transporter (Homo sapiens), Q01959 (parent)", "chain": "MSKSKCSVGLMSSVVAPAKEPNAVGPKEVELILVKEQNGVQLTSSTLTNPRQSPVEAQDRETWGKKIDFLLSVIGFAVDLANVWRFPYLCYKNGGGAFLVPYLLFMVIAGMPLFYMELALGQFNREGAAGVWKICPILKGVGFTVILISLYVGFFYNVIIAWALHYLFSSFTTELPWIHCNNSWNSPNCSDAHPGDSSGDSSGLNDTFGTTPAAEYFERGVLHLHQSHGIDDLGPPRWQLTACLVLVIVLLYFSLWKGVKTSGKVVWITATMPYVVLTALLLRGVTLPGAIDGIRAYLSVDFYRLCEASVWIDAATQVCFSLGVGFGVLIAFSSYNKFTNNCYRDAIVTTSINSLTSFSSGFVVFSFLGYMAQKHSVPIGDVAKDGPGLIFIIYPEAIATLPLSSAWAVVFFIMLLTLGIDSAMGGMESVITGLIDEFQLLHRHRELFTLFIVLATFLLSLFCVTNGGIYVFTLLDHFAAGTSILFGVLIEAIGVAWFYGVGQFSDDIQQMTGQRPSLYWRLCWKLVSPCFLLFVVVVSIVTFRPPHYGAYIFPDWANALGWVIATSSMAMVPIYAAYKFCSLPGSFREKLAYAIAPEKDRELVDRGEVRQFTLRHWLKV", "partner": "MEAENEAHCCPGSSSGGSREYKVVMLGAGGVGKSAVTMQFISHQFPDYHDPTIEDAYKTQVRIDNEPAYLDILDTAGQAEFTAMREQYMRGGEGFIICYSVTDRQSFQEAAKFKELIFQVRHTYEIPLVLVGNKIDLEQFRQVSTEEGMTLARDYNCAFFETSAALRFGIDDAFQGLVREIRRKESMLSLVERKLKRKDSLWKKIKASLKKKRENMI"}},
  "data": [
    {"variants_of": "B1", "conditions": "with rit2_rat Rit2, Q5BJQ5", "values": [
      {"variant": "F587A;R588A;E589A;K590A", "effect of a mutation on the interaction": "increasing interaction strength"}
    ]}
  ]
}
